Data: patent US9579358B2, “Compositions for binding to amyloid proteins” (LANCASTER UNIVERSITY BUSINESS ENTERPRISES LIMITED, priority 2011, dated 2017)
Each block holds one compound with its values, some of them ahead of it. Non-standard residues stand in square brackets, D forms with d. Residues, ends and D or L forms follow the SMILES beside them. No end group written: not given here.

Legend:
Aβ42 [1] = molecular target: T1, Aβ42 (Homo sapiens, UniProt P05067); assay: Sandwich immunoassay (6E10) for Aβ oligomers; format: biochemical; conditions: 2:1 and 1:1 molar ratios of inhibitor:Aβ42; from 4 and 8 h
T1 construct: Recombinant Aβ42, Ultrapure, was purchased from rPeptide, Bogart, Ga., USA; purchased rPeptide, Bogart, Ga., USA
T1 sequence (P05067 672-713 limits assumed): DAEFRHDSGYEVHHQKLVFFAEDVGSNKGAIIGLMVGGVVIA
Protocol: These inhibitors were also tested in an immunoassay technique for the detection of early-stage Aβ oligomers. This assay uses monoclonal anti-Aβ antibody 6E10 to capture Aβ from solution and a biotinylated form of 6E10 as the detection antibody, in a sandwich system. Monomeric Aβ has only a single 6E10 epitope, which is occupied by the capture antibody, and so it cannot subsequently bind to the detection antibody. On the other hand, multimeric Aβ has binding sites available for both capture and detection, giving rise to a strong immunoassay signal. In Aβ aggregation time-course experiments, this assay produces a signal before the ThT method, when only small oligomers are present.
The sandwich immunoassay used follows the method described previously by Taylor et al (28, 30). Briefly, 96-well ELISA plates (Maxisorb) were coated with mouse monoclonal antibody 6E10 diluted 1:1000 in assay buffer (Tris-buffered saline (TBS), pH 7.4, containing 0.05% gamma globulins and 0.005% Tween 20). […] Enhancer solution was added and the plates were read using the time-resolved fluorescence setting for europium on a Wallac Victor 2 plate reader.
This is a more sensitive test than the ThT assay for the detection of early oligomeric forms of Aβ [28]. […] Enhancer solution was added and the plates were read on a Wallac Victor 2 plate reader, using the time-resolved fluorescence setting for europium.

Aβ42 [2] = molecular target: T1, Aβ42; assay: Sandwich immunoassay (6E10) for Aβ oligomers; format: biochemical; conditions: Aβ1-42 12.5 μM

- development of immunoassay signal (oligomer formation) (Aβ42 [1]): considerably reduced
Compound: CC(=O)N[C@H](CCCNC(=N)N)C(=O)NCC(=O)N[C@H](Cc1ccccc1)C(=O)N[C@H](Cc1ccccc1)C(=O)N[C@@H](C(=O)N[C@H](CC(C)C)C(=O)N[C@H](CCCCN)C(=O)NCC(=O)N[C@H](CCCNC(=N)N)C(=O)N[C@H](CCCNC(=N)N)C(=O)N[C@H](CCCNC(=N)N)C(=O)N[C@H](CCCNC(=N)N)C(=O)N[C@H](CCC(N)=O)C(=O)N[C@H](CCCNC(=N)N)C(=O)N[C@H](CCCNC(=N)N)C(=O)N[C@H](CCCCN)C(=O)N[C@H](CCCCN)C(=O)N[C@H](CCCNC(=N)N)C(=O)NCC(=O)N[C@H](Cc1ccc(O)cc1)C(N)=O)C(C)C [RI-OR2-TAT, Ac-rGffvlkGrrrrqrrkkrGy-NH2] (Ac-[dR]G[dF][dF][dV][dL][dK]G[dR][dR][dR][dR][dQ][dR][dR][dK][dK][dR]G[dY]-NH2)

Compound: PINPs: RI-OR2-TAT covalently attached to nanoliposomes (cholesterol:sphingomyelin [1:1] with 2.5% maleimide) via an additional cysteine (Ac-[dR]G[dF][dF][dV][dL][dK]G[dR][dR][dR][dR][dQ][dR][dR][dK][dK][dR]G[dY][dC]; not fully specified (residue 21); also: C-terminal D-Cys coupled via its thiol to maleimide lipid of nanoliposome)
- inhibition of oligomer formation (Aβ42 [2]; 1:100 molar ratio of PINPS (total lipids):Aβ): still substantial
- immunoassay signal (time-resolved fluorescence, europium) (Aβ42 [2]; PINPs 1:1, 0 hours): 9494 relative fluorescence units
- immunoassay signal (time-resolved fluorescence, europium) (Aβ42 [2]; PINPs 1:1, 2 hours): 17524 relative fluorescence units
- immunoassay signal (time-resolved fluorescence, europium) (Aβ42 [2]; PINPs 1:1, 4 hours): 62958 relative fluorescence units
- immunoassay signal (time-resolved fluorescence, europium) (Aβ42 [2]; PINPs 1:1, 8 hours): 116308 relative fluorescence units
- immunoassay signal (time-resolved fluorescence, europium) (Aβ42 [2]; PINPs 1:1, 24 hours): 178685 relative fluorescence units
- immunoassay signal (time-resolved fluorescence, europium) (Aβ42 [2]; PINPs 1:1, 48 hours): 122098 relative fluorescence units
- immunoassay signal (time-resolved fluorescence, europium) (Aβ42 [2]; PINPs 1:10, 0 hours): 9666 relative fluorescence units
- immunoassay signal (time-resolved fluorescence, europium) (Aβ42 [2]; PINPs 1:10, 2 hours): 33960 relative fluorescence units
- immunoassay signal (time-resolved fluorescence, europium) (Aβ42 [2]; PINPs 1:10, 4 hours): 63899 relative fluorescence units
- immunoassay signal (time-resolved fluorescence, europium) (Aβ42 [2]; PINPs 1:10, 8 hours): 77883 relative fluorescence units
- immunoassay signal (time-resolved fluorescence, europium) (Aβ42 [2]; PINPs 1:10, 24 hours): 95760 relative fluorescence units
- immunoassay signal (time-resolved fluorescence, europium) (Aβ42 [2]; PINPs 1:10, 48 hours): 198806 relative fluorescence units
- immunoassay signal (time-resolved fluorescence, europium) (Aβ42 [2]; PINPs 1:50, 0 hours): 7833 relative fluorescence units
- immunoassay signal (time-resolved fluorescence, europium) (Aβ42 [2]; PINPs 1:50, 2 hours): 124190 relative fluorescence units
- immunoassay signal (time-resolved fluorescence, europium) (Aβ42 [2]; PINPs 1:50, 4 hours): 111776 relative fluorescence units
- immunoassay signal (time-resolved fluorescence, europium) (Aβ42 [2]; PINPs 1:50, 8 hours): 177380 relative fluorescence units
- immunoassay signal (time-resolved fluorescence, europium) (Aβ42 [2]; PINPs 1:50, 24 hours): 173198 relative fluorescence units
- immunoassay signal (time-resolved fluorescence, europium) (Aβ42 [2]; PINPs 1:50, 48 hours): 99592 relative fluorescence units
- immunoassay signal (time-resolved fluorescence, europium) (Aβ42 [2]; PINPs 1:100, 0 hours): 3766 relative fluorescence units
- immunoassay signal (time-resolved fluorescence, europium) (Aβ42 [2]; PINPs 1:100, 2 hours): 78306 relative fluorescence units
- immunoassay signal (time-resolved fluorescence, europium) (Aβ42 [2]; PINPs 1:100, 4 hours): 82278 relative fluorescence units
- immunoassay signal (time-resolved fluorescence, europium) (Aβ42 [2]; PINPs 1:100, 8 hours): 141932 relative fluorescence units
- immunoassay signal (time-resolved fluorescence, europium) (Aβ42 [2]; PINPs 1:100, 24 hours): 154889 relative fluorescence units
- immunoassay signal (time-resolved fluorescence, europium) (Aβ42 [2]; PINPs 1:100, 48 hours): 131004 relative fluorescence units
